Measured values published in publication PMC3019082.

T1: I-SceI G100T (Saccharomyces cerevisiae, UniProt P03882 1-235, G100T)
T1 sequence: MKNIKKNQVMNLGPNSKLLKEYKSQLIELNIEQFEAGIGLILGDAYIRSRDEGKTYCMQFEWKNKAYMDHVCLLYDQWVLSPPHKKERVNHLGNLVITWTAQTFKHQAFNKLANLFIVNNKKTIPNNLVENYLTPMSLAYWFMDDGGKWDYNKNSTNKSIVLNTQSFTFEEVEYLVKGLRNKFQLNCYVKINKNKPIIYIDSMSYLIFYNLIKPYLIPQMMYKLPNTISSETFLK

T2: I-SceI K86R/G100T (Saccharomyces cerevisiae, UniProt P03882 1-235, K86R;G100T)
T2 sequence: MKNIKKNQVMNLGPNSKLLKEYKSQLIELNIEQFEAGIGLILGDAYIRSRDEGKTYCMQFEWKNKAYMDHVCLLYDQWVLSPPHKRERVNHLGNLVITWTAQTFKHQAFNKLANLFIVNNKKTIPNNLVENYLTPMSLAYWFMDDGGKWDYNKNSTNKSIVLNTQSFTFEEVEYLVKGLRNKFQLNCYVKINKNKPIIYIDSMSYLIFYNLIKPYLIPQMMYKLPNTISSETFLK

T3: I-SceI G100S (Saccharomyces cerevisiae, UniProt P03882 1-235, G100S)
T3 sequence: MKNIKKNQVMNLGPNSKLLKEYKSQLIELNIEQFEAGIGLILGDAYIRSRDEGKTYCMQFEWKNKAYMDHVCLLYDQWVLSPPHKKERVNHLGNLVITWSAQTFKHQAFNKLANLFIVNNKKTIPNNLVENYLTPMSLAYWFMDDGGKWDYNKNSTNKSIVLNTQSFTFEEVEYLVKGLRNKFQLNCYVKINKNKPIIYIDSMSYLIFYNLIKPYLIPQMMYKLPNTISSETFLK

T4: I-SceI G100C (Saccharomyces cerevisiae, UniProt P03882 1-235, G100C)
T4 sequence: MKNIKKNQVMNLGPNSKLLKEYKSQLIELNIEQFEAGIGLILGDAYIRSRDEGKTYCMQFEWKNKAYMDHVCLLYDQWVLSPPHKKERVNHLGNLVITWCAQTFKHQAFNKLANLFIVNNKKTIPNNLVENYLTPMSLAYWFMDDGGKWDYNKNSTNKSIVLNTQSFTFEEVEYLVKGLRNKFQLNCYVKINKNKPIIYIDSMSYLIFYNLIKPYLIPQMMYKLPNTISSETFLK

T5: I-SceI K86R/G100C (Saccharomyces cerevisiae, UniProt P03882 1-235, K86R;G100C)
T5 sequence: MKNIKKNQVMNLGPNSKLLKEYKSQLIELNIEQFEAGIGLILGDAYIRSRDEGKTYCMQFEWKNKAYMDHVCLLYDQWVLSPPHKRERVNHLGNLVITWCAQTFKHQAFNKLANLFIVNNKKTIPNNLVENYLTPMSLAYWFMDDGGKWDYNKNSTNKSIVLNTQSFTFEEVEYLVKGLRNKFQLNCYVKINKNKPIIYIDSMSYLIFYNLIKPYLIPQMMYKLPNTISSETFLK

T6: I-SceI K86R/G100S (Saccharomyces cerevisiae, UniProt P03882 1-235, K86R;G100S)
T6 sequence: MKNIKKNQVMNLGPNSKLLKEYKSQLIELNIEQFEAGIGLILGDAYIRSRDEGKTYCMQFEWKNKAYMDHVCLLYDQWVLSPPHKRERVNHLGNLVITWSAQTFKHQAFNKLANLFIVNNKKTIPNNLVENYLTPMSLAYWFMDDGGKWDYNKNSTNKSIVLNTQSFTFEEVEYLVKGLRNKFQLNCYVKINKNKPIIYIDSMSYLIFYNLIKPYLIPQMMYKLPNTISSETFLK

T7: I-SceI G100V (Saccharomyces cerevisiae, UniProt P03882 1-235, G100V)
T7 sequence: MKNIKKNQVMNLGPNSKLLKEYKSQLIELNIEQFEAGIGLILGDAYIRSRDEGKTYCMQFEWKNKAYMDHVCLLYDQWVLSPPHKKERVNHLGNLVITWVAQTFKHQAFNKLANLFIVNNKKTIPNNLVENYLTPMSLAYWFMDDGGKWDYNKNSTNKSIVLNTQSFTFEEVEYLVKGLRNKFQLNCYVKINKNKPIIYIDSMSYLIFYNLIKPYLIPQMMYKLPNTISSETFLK

T8: I-SceI K86R (Saccharomyces cerevisiae, UniProt P03882 1-235, K86R)
T8 sequence: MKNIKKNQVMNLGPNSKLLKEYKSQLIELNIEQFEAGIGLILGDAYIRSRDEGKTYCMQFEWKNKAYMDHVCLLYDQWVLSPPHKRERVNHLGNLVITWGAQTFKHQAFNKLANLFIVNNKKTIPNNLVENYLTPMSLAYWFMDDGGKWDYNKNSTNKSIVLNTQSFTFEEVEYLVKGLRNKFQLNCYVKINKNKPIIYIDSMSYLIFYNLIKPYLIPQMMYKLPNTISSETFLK

T9: I-SceI wild type (K86/G100) (Saccharomyces cerevisiae, UniProt P03882 1-235)
T9 sequence: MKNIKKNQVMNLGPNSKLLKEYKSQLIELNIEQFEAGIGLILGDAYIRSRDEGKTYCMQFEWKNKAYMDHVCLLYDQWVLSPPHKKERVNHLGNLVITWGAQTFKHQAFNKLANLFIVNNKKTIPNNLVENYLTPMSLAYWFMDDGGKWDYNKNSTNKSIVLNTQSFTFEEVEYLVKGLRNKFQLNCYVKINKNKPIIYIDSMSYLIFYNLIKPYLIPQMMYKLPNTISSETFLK


Tests used:
Assay in all cases: filter binding
[1] = biological target: T1, I-SceI G100T
[2] = biological target: T2, I-SceI K86R/G100T
[3] = biological target: T3, I-SceI G100S
[4] = biological target: T4, I-SceI G100C
[5] = biological target: T5, I-SceI K86R/G100C
[6] = biological target: T6, I-SceI K86R/G100S
[7] = biological target: T7, I-SceI G100V
[8] = biological target: T8, I-SceI K86R
[9] = biological target: T9, I-SceI wild type (K86/G100)

Row | Binder | Kd [1] [nM] | Kd [2] [nM] | Kd [3] [nM] | Kd [4] [nM] | Kd [5] [nM] | Kd [6] [nM] | Kd [7] [nM] | Kd [8] [nM] | Kd [9] [nM]
1 | A/T+4 (WT) I-SceI target, filter binding duplex (dsDNA) DNA 1: AACGAATAAAAGTTACGCTAGGGATAACAGGGTAATATAGCGAAAGAGTAGATATT DNA 2: CAATATCTACTCTTTCGCTATATTACCCTGTTATCCCTAGCGTAACTTT | 39 ± 13 | 96 ± 16 | 150 ± 26 | 110 ± 30 | 74 ± 12 | 83 ± 27 | 240 ± 51 | 35 ± 5 | 9 ± 3
2 | C/G+4 I-SceI target, filter binding duplex (dsDNA) DNA 1: AACGAATAAAAGTTACGCTAGGGATAACCGGGTAATATAGCGAAAGAGTAGATATT DNA 2: CAATATCTACTCTTTCGCTATATTACCCGGTTATCCCTAGCGTAACTTT | 10 ± 1.5 | 8.2 ± 0.86 | 32 ± 10 | 34 ± 8.8 | 7.5 ± 2.3 | 23 ± 4.3 | 230 ± 27 | 39 ± 10 | 20 ± 4.6
